Patent US20240309051A1, “[…] T (TFH) CELLS […] TO SARS-COV-2 VIRUS” (priority 2021, published 2024)

Biological target: T1, SARS-COV-2 S protein, S867-881 peptide with residue 3 (Q) of SEQ ID NO: 13 replaced with alanine peptide on … (human)
T1 peptide: DEMIAAYTSALLAGT
Assay: activation reporter or marker

B1: Clone 1 (TCR-017) (TCR)
alpha TRAV12-1 TRAJ12 CDR3: CVVNRGSSYKLIF
beta TRBV11-2 TRBJ2-7 CDR3: CASSQTYEQYF
binding result: no recognition
